In article PMC6685639 one finds pNPP dephosphorylation activity of recombinant PfPP1c (40 pmol, without GST) pre-incubated 30 min data, which are given here for 2 substances.

In this assay the target is GST-PfPP1c (P. falciparum).

Regarding “6-His PbGEXP15 (4–178) (domain or fragment)”, the pNPP dephosphorylation activity of recombinant PfPP1c (40 pmol, without GST) pre-incubated 30 min at 37°C with different amounts of PbGEXP15 (4–178); concentration-dependent increase was determined as 2 fold.
In the case of “6-His PbGEXP15 (4–590) (domain or fragment)”, the pNPP dephosphorylation activity of recombinant PfPP1c (40 pmol, without GST) pre-incubated 30 min at 37°C with different amounts of PbGEXP15 (4–590); concentration-dependent increase stood at 2 fold.
